# Measurements from publication PMC4960622, “Crystal structures of RidA, an important enzyme for the prevention of toxic side products” (Scientific Reports, 2016).
# Tests used:
# [1] = biological target: the molecule itself; experiment: SEC; 0.5 mg of RidA WT and mutants loaded separately onto a Superdex-75 size-exclusion column; protein standards as size reference
# [2] = biological target: the molecule itself; experiment: crystal structure; apo form; space group H3, one monomer per asymmetric unit, trimer by the crystallographic 3-fold axis; sitting drop, 18% PEG 3350, 0.1 M MES pH 6.0, 25 °C
protein,measurement,setting,value
"Arabidopsis thaliana RidA, construct starting from S68 (AtRidA-S68), wild type (enzyme, UniProt Q94JQ4 68-187, looked up, Reactive Intermediate Deaminase A (RidA), Arabidopsis thaliana, GenBank AY060547.1, residues S68-L187 (without the predicted chloroplast transit peptide); Residues S80-L187 are resolved in the crystal structures; also called RidA WT; apo-AtRidA; source: E. coli BL21 (DE3), purified (Ni-NTA, PreScission cleavage, Histrap); not shown: His6, N-terminal, cleaved) STEKAPAALGPYSQAIKANNLVFLSGVLGLIPETGKFVSESVEDQTEQVLKNMGEILKASGADYSSVVKTTIMLADLADFKTVNEIYAKYFPAPSPARSTYQVAALPLNAKIEIECIATL",stoichiometry N,[1],~3
same,stoichiometry N,[2],3
"AtRidA-S68 S80A (enzyme, Arabidopsis thaliana, UniProt Q94JQ4 68-187, looked up, Reactive Intermediate Deaminase A (RidA), Arabidopsis thaliana, GenBank AY060547.1, residues S68-L187, made by QuikChange on the RidA-S68/pET28a(+) plasmid; The purification of the mutants is not described separately; probably as for the wild type (tag cleaved); also called RidA-S80A; source: E. coli BL21 (DE3), purified) STEKAPAALGPYAQAIKANNLVFLSGVLGLIPETGKFVSESVEDQTEQVLKNMGEILKASGADYSSVVKTTIMLADLADFKTVNEIYAKYFPAPSPARSTYQVAALPLNAKIEIECIATL",binding result,[1],binds
"AtRidA-S68 S92A (enzyme, Arabidopsis thaliana, UniProt Q94JQ4 68-187, looked up, Reactive Intermediate Deaminase A (RidA), Arabidopsis thaliana, GenBank AY060547.1, residues S68-L187, made by QuikChange on the RidA-S68/pET28a(+) plasmid; The purification of the mutants is not described separately; probably as for the wild type (tag cleaved); also called RidA-S92A; source: E. coli BL21 (DE3), purified) STEKAPAALGPYSQAIKANNLVFLAGVLGLIPETGKFVSESVEDQTEQVLKNMGEILKASGADYSSVVKTTIMLADLADFKTVNEIYAKYFPAPSPARSTYQVAALPLNAKIEIECIATL",binding result,[1],binds
"AtRidA-S68 K136R (enzyme, Arabidopsis thaliana, UniProt Q94JQ4 68-187, looked up, Reactive Intermediate Deaminase A (RidA), Arabidopsis thaliana, GenBank AY060547.1, residues S68-L187, made by QuikChange on the RidA-S68/pET28a(+) plasmid; The purification of the mutants is not described separately; probably as for the wild type (tag cleaved); also called RidA-K136R; source: E. coli BL21 (DE3), purified) STEKAPAALGPYSQAIKANNLVFLSGVLGLIPETGKFVSESVEDQTEQVLKNMGEILKASGADYSSVVRTTIMLADLADFKTVNEIYAKYFPAPSPARSTYQVAALPLNAKIEIECIATL",binding result,[1],binds
"AtRidA-S68 S166A (enzyme, Arabidopsis thaliana, UniProt Q94JQ4 68-187, looked up, Reactive Intermediate Deaminase A (RidA), Arabidopsis thaliana, GenBank AY060547.1, residues S68-L187, made by QuikChange on the RidA-S68/pET28a(+) plasmid; The purification of the mutants is not described separately; probably as for the wild type (tag cleaved); also called RidA-S166A; source: E. coli BL21 (DE3), purified) STEKAPAALGPYSQAIKANNLVFLSGVLGLIPETGKFVSESVEDQTEQVLKNMGEILKASGADYSSVVKTTIMLADLADFKTVNEIYAKYFPAPSPARATYQVAALPLNAKIEIECIATL",binding result,[1],binds
"AtRidA-S68 E182A (enzyme, Arabidopsis thaliana, UniProt Q94JQ4 68-187, looked up, Reactive Intermediate Deaminase A (RidA), Arabidopsis thaliana, GenBank AY060547.1, residues S68-L187, made by QuikChange on the RidA-S68/pET28a(+) plasmid; The purification of the mutants is not described separately; probably as for the wild type (tag cleaved); also called RidA-E182A; source: E. coli BL21 (DE3), purified) STEKAPAALGPYSQAIKANNLVFLSGVLGLIPETGKFVSESVEDQTEQVLKNMGEILKASGADYSSVVKTTIMLADLADFKTVNEIYAKYFPAPSPARSTYQVAALPLNAKIEIACIATL",binding result,[1],binds
